# Data taken from publication PMC4663267, “A Novel C-Terminal Domain of RecJ is Critical for Interaction with HerA in Deinococcus radiodurans”.
# T1: DrRecJ (Deinococcus radiodurans, UniProt D0EM60 1-705)
# T1 sequence: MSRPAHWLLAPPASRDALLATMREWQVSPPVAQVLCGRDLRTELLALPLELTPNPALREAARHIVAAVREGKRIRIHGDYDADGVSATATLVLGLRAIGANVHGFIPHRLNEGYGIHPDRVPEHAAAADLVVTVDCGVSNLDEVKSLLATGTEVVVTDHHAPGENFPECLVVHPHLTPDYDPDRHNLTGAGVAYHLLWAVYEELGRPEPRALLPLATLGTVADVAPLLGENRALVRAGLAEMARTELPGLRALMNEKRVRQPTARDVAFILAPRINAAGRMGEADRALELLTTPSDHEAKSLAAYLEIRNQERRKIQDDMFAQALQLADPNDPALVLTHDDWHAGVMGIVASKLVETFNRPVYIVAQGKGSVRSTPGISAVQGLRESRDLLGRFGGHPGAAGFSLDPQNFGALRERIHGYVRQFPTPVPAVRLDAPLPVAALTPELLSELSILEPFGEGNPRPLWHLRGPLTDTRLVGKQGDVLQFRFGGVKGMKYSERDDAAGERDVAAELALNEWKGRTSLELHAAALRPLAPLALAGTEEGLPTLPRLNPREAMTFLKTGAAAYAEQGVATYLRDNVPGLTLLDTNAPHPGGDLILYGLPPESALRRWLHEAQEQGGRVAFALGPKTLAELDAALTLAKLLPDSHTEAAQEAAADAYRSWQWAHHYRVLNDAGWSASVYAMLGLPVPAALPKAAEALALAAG
# T2: DrHerA (Deinococcus radiodurans, UniProt Q9RW32 1-618)
# T2 sequence: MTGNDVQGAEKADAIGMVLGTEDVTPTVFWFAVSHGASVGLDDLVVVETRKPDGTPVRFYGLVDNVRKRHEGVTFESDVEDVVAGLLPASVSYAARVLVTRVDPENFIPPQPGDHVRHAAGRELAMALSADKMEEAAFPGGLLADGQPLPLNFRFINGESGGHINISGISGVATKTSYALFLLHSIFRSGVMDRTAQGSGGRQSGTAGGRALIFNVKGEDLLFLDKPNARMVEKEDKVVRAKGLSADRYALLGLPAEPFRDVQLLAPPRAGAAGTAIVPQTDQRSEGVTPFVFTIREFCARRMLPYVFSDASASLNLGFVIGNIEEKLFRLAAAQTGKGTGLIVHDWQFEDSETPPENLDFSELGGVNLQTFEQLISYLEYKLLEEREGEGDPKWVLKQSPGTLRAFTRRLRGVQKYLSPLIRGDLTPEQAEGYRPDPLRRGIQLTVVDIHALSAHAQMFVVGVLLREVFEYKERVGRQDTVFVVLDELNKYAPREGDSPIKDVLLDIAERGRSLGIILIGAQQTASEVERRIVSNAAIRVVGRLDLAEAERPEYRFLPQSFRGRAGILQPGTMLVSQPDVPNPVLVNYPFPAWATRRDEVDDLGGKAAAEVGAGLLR
# Columns and labels:
# DrRecJ = molecular target: T1, DrRecJ; test: EMSA; DNA:RecJ 1:2 to 1:16; no metal added; EMSA: 100 nM DNA, 80 mM NaCl, 20 mM Tris-HCl pH 7.5, 1 mM DTT, 30 C, 10 min, 5% TBE native PAGE; conditions: protein: recombinant; tags: HMT (His6-MBP) tag removed by TEV; label: 5' FAM; single strand
# DrHerA = molecular target: T2, DrHerA; test: EMSA; HerA alone; EMSA: 100 nM DNA, 80 mM NaCl, 20 mM Tris-HCl pH 7.5, 1 mM DTT, 30 C, 10 min, 5% TBE native PAGE; conditions: protein: recombinant; tags: N-terminal His6; chain copies: 6; label: 5' FAM; single strand
binder,measurement,setting,value
AAAAAAAAAA (ssDNA) [O1 (10 nt ssDNA)],binding result,DrRecJ,binds
same,binding result,DrHerA,no binding
